Positions count from the first letter of the chain named.

Here are results for five molecules from article PMC2674315 (Biochemistry, 2008).

T1: Sam domain of the EphA2 receptor, polyHis-tag cut with thrombin (human, UniProt P29317 901-976)
T1 sequence (looked up): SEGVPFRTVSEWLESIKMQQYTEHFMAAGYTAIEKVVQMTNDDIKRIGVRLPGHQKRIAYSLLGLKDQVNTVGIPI

T2: EphA2-Sam double mutant (H924N, R950A) (human, UniProt P29317 901-976, H924N | R950A)
T2 sequence (looked up): T1 sequence (looked up) with H24N, R50A

B1: Shiptide (minimal peptide region of Ship2-Sam) (peptide)
peptide: Ac-EGLVHNGWDDLEFLSDITEEDL-NH2
B2: Sam domain of the EphA2 receptor (domain or fragment, human, UniProt P29317 901-976, looked up)
chain: T1 sequence (looked up)
B3: Sam domain of Ship2 (Src homology 2 domain-containing phosphoinositide-5-phosphatase 2) (domain or fragment, human, UniProt O15357 1194-1258, looked up)
chain: SGLGEAGMSAWLRAIGLERYEEGLVHNGWDDLEFLSDITEEDLEEAGVQDPAHKRLLLDTLQLSK

The target of test [1] is Sam domain of Ship2 (Src homology 2 domain-containing phosphoinositide-5-phosphatase 2) (human) (UniProt O15357). As to the kind of experiment: AUC.
In test [2] the target is Arap3-Sam Sam (Homo sapiens) (UniProt Q8WWN8). Briefly: ITC. The following applies: cited from earlier work.
Chain of Arap3-Sam Sam (Homo sapiens) (Q8WWN8 1-71): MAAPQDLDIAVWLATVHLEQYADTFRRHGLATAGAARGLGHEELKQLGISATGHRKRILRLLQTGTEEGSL
Test [3] deals with T1, Sam domain of the EphA2 receptor, …. Briefly: ITC. Background: ITC needs no label: the signal is the heat of the interaction.
Test [4] addresses B3. As to the kind of experiment: ITC.
The target in test [5] is T2, EphA2-Sam double mutant (H924N, R950A). Briefly: ITC.
Test [6] concerns the target B2. As to the kind of experiment: ITC.

A word on the Kd: it is a measure of binding affinity in units of concentration. In turn, “Sam domain of Ship2 (Src homology 2 domain-containing phosphoinositide-5-phosphatase 2) (from UniProt O15357 1194-1258) (domain or fragment)” came in with a Kd in test [1] of 2000 µM.

For the molecule Ship2-Sam Sam (from UniProt O15357), the dissociation constant (Kd) in test [2] was 0.1 µM.

B1: the dissociation constant Kd in test [3] is 19 ± 3 µM.

One may read the stoichiometry N as a count of units in the complex or per binding partner. Regarding B2, the “stoichiometry N” value in test [4] turned out to be 1.

With B3, the dissociation constant Kd is 1.8 ± 0.6 µM in test [5] and 0.75 ± 0.12 µM in test [6].
